Source: the supplement of paper PMC12042874
± gives the uncertainty stated by the source.

assay: amyloid nucleation score (Sup35N fusion, yeast selection) (log enrichment); library NNK1; higher = more nucleation; inactive = no reads after selection
Procedure, shortened: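 After 24 hours of induction with 100 μM copper sulfate, psi-negative yeast expressing peptides of 20 random codons fused to Sup35N were grown for 7 days at 30°C on medium lacking adenine and uracil. Input and output plasmid inserts were sequenced with Illumina, and sequences with under 100 input reads were discarded. Scores for nucleation are the DiMSum log enrichment of output over input reads, centred on the mode score of non-aggregating sequences.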

| Substance | amyloid nucleation score |
| --- | --- |
| QWCSRRDMCFRSSVILCLWR | -0.035 ± 0.75 |
| CGLLWSCSKLH | 1.56 ± 0.42 |
| LRRGKLDLDHPLVNKWRKKG | -0.005 ± 0.67 |
| NTISMFDMLQISKTSQHQFA | 0.387 ± 0.45 |
| ICGTCCMPNLFVHHYIFLSP | 6.708 ± 0.063 |
| IRGTTRAFLANQGCDVLYTG | -0.865 ± 0.86 |
| NNSLISTGVRMNHVVLR | -0.091 ± 0.9 |
| LHRIVTVNIP | 1.23 ± 0.8 |
| LVCSLTDNYDEE | 0.169 ± 0.97 |
| VHIFCSTTCFFMNFMLIQNK | -0.045 ± 0.51 |
| SKCIWDFGYVSPWAISS | inactive |
| WVNVTRVNGRDEGAPSIRNK | -0.787 ± 0.4 |
| NGVPWG | -0.21 ± 0.95 |
| ALCLSRARSSG | -0.152 ± 0.68 |
| RGMGVAWAYLSSNTRPRRLN | 0.792 ± 0.76 |
| MFQVVGRYNGVFLVTEPWTC | inactive |
| RDSRDLMCFVRLPLDRISK | -0.101 ± 0.39 |
| SWRTCAPTWKVALFIWMCTS | 3.39 ± 0.17 |
| EHTSGVDFIVNNLSECFTLR | inactive |
| CVNLFSLLFWTLAIRCLNFR | -0.025 ± 0.49 |
| TCGRGHVTRGYWGTMCGCNG | 1.06 ± 0.72 |
| FVTWH | inactive |
| LLNRSALCWMCCTKDSWLLT | 7.073 ± 0.061 |
| WSSKLFCIGLDLCVVDDMCF | 2.44 ± 0.12 |
| SDYMCTKSSIKLNTYIDVKD | -1.6 ± 2.1 |

| Substance | amyloid nucleation score |
| --- | --- |
| LNMLMMVGVWGYFVITIHTI | 0.68 ± 0.71 |
| HNLLM | inactive |
| RTILISAGAKCVNLMMLDSV | 1.6 ± 0.29 |
| FSLDMSTCVLENFVLDTFQH | -2.21 ± 2.7 |
| FIVTYSNTIRYSMPSKLPWQ | 3.26 ± 0.077 |
| GLFMGWYDRMP | 0.265 ± 0.6 |
| DAEFRHDSGYEVHHQKLVFF | 2.91 ± 0.19 |
| FRNIDTLLTVHCVSACR | -2.4 ± 2.7 |
| CHYLVLD | -0.186 ± 0.74 |
| CSNDMGEQWWEDRYCTGKWD | -0.204 ± 0.38 |
| VWFYRLIVSEVGFFRVKLKM | -1.58 ± 1.4 |
| LQSFVLLGDRIYRRFCVLMN | 0.048 ± 1.2 |
| LGYIEKFWVGGHYLFLPTIY | 0.073 ± 1.5 |
| LIYPGIVDFVFSDARQGCSR | 1.08 ± 0.69 |
| GYGSHNEAGKLGVGGEVCYG | 3.85 ± 0.065 |
| NYFSQKWFTTGRTPRMMDMW | -0.007 ± 0.32 |
| PVLLRSIIF | -0.346 ± 0.36 |
| LSTKKTQTMRRVW | 0.404 ± 0.44 |
| LYNFVGSNRIRFASCTQLLC | 1.87 ± 0.38 |
| SKLLNVDLTPCRSRTTLFVC | 1.29 ± 0.47 |
| PNMARHPFYEDMCFTVDVTN | -1 ± 0.44 |
| AVELI | -0.436 ± 0.34 |
| KKNIWPLYSLRVRLYELAIS | -0.965 ± 1.7 |
| MERPGNCVGWRRCPLHVTNG | -0.292 ± 1.2 |
| TGIYYWNRKLGRYRLHVHVV | -0.15 ± 0.97 |

| Substance | amyloid nucleation score |
| --- | --- |
| GASRVTNYRELLMASANHDG | -0.413 ± 0.45 |
| ILIRNIMCSGSVSLSNLGSG | -0.134 ± 1 |
| RWSFSSTY | 3.69 ± 0.085 |
| CAIFFTASLCVCRLSAACEQ | 1.75 ± 0.43 |
| RRGLCGNAKAIIRGLAQGWD | -1 ± 1.2 |
| RIWPQIVCDIDIRP | -0.444 ± 0.52 |
| DTLIFVLREVTLLNDAGVSS | 0.646 ± 0.42 |
| YWLSTTIRYVCEVQATPCWI | -1.31 ± 2.7 |
| NVIID | inactive |
| FSMGQQMFVLVLSCFLVLWC | 0.832 ± 0.65 |
| KPWLVHMHGSSYNGRADAEV | 0.811 ± 0.61 |
| AHLAVPSQLNECFIVSLWV | 0.328 ± 0.76 |
| FISPLSISLHQWVLSSKYRE | 7.394 ± 0.044 |
| NVIRTQQSR | 0.208 ± 0.52 |
| NALRVV | -0.637 ± 0.68 |
| TRYLRIWSPSQMICMWGRFL | 0.145 ± 0.5 |
| GACHLGDDYFRSSVVVTKSA | 0.232 ± 0.39 |
| VECLKV | 0.387 ± 0.52 |
| AYFIYVMYG | -1.11 ± 1.1 |
| CKRNQTTVSVVGWFI | -0.227 ± 1.2 |
| FMNGLGPAVAYIMGYTYVSM | 6.369 ± 0.063 |
| AKVCLKSVTQFTTHLLMSRG | -0.009 ± 0.77 |
| LGTLNAGHTRDVDGAMGYVW | 0.252 ± 1.1 |
| KSDSVLAGY | 5.039 ± 0.05 |
| DSSRTLFCRAHWGSRFNGRG | -1.69 ± 2.4 |

| Substance | amyloid nucleation score |
| --- | --- |
| IIYDLLCYSWRMFWL | 2.27 ± 0.1 |
| GNVRYAPYVVGIKLIRANSC | -0.381 ± 0.81 |
| RYDAWCYGWGVMMLHKFIG | -0.012 ± 0.64 |
| LMPPSG | 0.072 ± 0.69 |
| ILFVG | -0.462 ± 0.42 |
| SVGDVVYGEFLIAKQSAACV | 0.115 ± 0.44 |
| AVLYLSQFGLNRKRGYTA | 0.582 ± 0.56 |
| FTWMRYQKHEGHFI | -0.447 ± 1.2 |
| LRFMCRYFLRQRNYEPWFYG | 0.1 ± 0.55 |
| AIVTSGNRE | -0.015 ± 0.51 |
| GHLCSLSSGFN | 0.69 ± 0.24 |
| FVRAIMARVGFTFV | 0.569 ± 0.47 |
| ILKELSKPGVQPVVS | 0.575 ± 0.8 |
| GSNIGQSFWYRRWVQQRTAE | -1.13 ± 2.7 |
| HFTIKF | 1.06 ± 0.27 |
| ILEYWSISKKPYMIVMGGRV | 0.15 ± 0.34 |
| FEGILIKFCFGAWESDKVTM | 1.36 ± 0.59 |
| NDTSNPVTLCHFV | 0.408 ± 0.48 |
| SNSSMWAYRVC | 0.497 ± 0.74 |
| YATGDCDVLMYRLGMNKKSS | 0.488 ± 0.45 |
| RVYISMM | -1.41 ± 1.7 |
| THYNAGSCKMLNQAPFHRIS | -0.352 ± 0.33 |
| IYTRFFNTV | -0.222 ± 0.36 |
| FSVAGSE | inactive |
| ISLVLDFGDVYIVS | 6.203 ± 0.048 |

| Substance | amyloid nucleation score |
| --- | --- |
| FRIYLYLTCGLCSIIHYFVP | 0.818 ± 0.25 |
| VFSIIRPGMASSLHGQVQIA | 1.28 ± 0.69 |
| MEWDAYVMI | 0.442 ± 0.84 |
| LCDGFILLSNVLLGPMIYDW | 0.561 ± 0.27 |
| HYTFKDCSSPLSWEPQPLFP | -0.32 ± 0.83 |
| HIFCRVIPLHMYKLADNW | 0.841 ± 0.8 |
| GRDSIRCLNTTEASKLYGGL | 0.609 ± 0.64 |
| DDGGLSFGSGNSQSSKKIWL | 0.853 ± 0.42 |
| ENKLNSPPWMLSLFTFLIVV | -0.242 ± 0.66 |
| GHWSYYKVTSYYI | inactive |
| GWCYSDVVMLPF | -0.141 ± 0.34 |
| INTCCIRCFRQYGNFNKIKT | 0.662 ± 1.1 |
| KIALTLIRRLQFLNDSVKPQ | 1.71 ± 0.17 |
| EVGNCFLESPGMVYVVGRDR | 0.51 ± 0.52 |
| INNHKIDQTML | -0.541 ± 0.84 |
| EWVALRCLDMEGAVAPLALV | 1.02 ± 0.28 |
| SHYTHVFLM | -0.468 ± 0.93 |
| TFYNFAMSFKEVCCCMSWRG | 7.143 ± 0.058 |
| DLEIAGREGS | -0.322 ± 0.55 |
| TLRHALLRQTLSNLRQDGV | -0.009 ± 0.3 |
| FVGCRHHFGPCTNRCTK | 0.087 ± 0.9 |
| VFLMYRLMH | inactive |
| YNCYNF | 0.97 ± 0.69 |
| ANSSLLEFHTYDWDLYSACL | -1.06 ± 1.5 |
| FFLLIFSVRGNPFFIKW | -0.153 ± 0.66 |

| Substance | amyloid nucleation score |
| --- | --- |
| DYIIPMLSI | 0.515 ± 0.9 |
| RDKMDDWFQRHMESGTRTRE | 0.053 ± 0.23 |
| LDIINLGGRHFTRSPVLYRN | -0.297 ± 0.49 |
| MNVGCSVVWIKCLNACTSKQ | 6.168 ± 0.06 |
| DWLFLEFGHFTMPEHTKELE | -0.68 ± 1.2 |
| LAEWRLYLRRTVWYLRILIR | -0.066 ± 1 |
| PVCWSHFYFRVDVFYEWGRV | -0.274 ± 0.39 |
| ITSNHSVWGIMLLKLVTGSI | 0.496 ± 0.48 |
| IGCGGVPKNQCWGPERFLEW | -0.132 ± 0.57 |
| MFAWLDDLFRY | -0.3 ± 0.38 |
| FGIWIRGFRTYDECHPAHGC | 0.434 ± 0.41 |
| VLLIPMTKAKMKMSIW | 0.584 ± 0.34 |
| LILFVGIYTLHYYGFNRRYS | 0.272 ± 0.69 |
| VVAAILHKLS | -0.16 ± 0.41 |
| ARVSRSFVSRAANIHGNCRR | -0.029 ± 1.1 |
| LNFDNFLLMWTMLVNRIISD | 0.574 ± 0.97 |
| MLSNGGLHVRSK | 1.31 ± 0.93 |
| RLSSSIYAFSDIHCGMSEAQ | 0.168 ± 0.26 |
| SCKFMIYNSVGAGSLGHVNR | 4.69 ± 0.094 |
| GVFEPCRVRSFMHIVSIADR | -0.306 ± 1.7 |
| VMPSSELYF | 0.349 ± 0.39 |
| YMFWRGLVFKWVV | 0.667 ± 0.56 |
| MDKSELK | 0.128 ± 0.86 |
| RIDYWVIPGAWNSTCWRYTT | 1.49 ± 0.45 |
| LPTSTVSCQNWDTLLTLCSG | -0.094 ± 0.77 |

| Substance | amyloid nucleation score |
| --- | --- |
| VTRYTLVYFPLSLIRSTPAN | 0.62 ± 0.36 |
| APKITGQTSNVGTRA | -0.028 ± 0.52 |
| GREANILFLYLVLRTFFRMG | inactive |
| RRGGGGSSIFLMHTAWILLE | 1.03 ± 0.34 |
| LAMPLFPLQDGSW | inactive |
| CLSELGFAVPTSWTICILCT | 0.656 ± 0.59 |
| EDDFASMRLDSLRELVLHNR | inactive |
| GSSKNFH | 0.972 ± 0.43 |
| LFLGMSNGLFLRMISRGCKW | -0.243 ± 0.33 |
| GICHSPGWCC | 2.69 ± 0.14 |
| IMLLAWQLSKMSSFVCKSTR | 0.16 ± 0.74 |
| ISQVIGSRILPRPTEQVA | -1.96 ± 1.3 |
| NQDMVNMIHETFIVLARVVI | -0.059 ± 0.38 |
| LLPLLSMGRTPLRCKPMASS | 0.058 ± 0.3 |
| HWLSAMIGVPEHGH | -0.121 ± 0.33 |
| IPRGCRFKSRVTVKINSGAG | 1.37 ± 0.9 |
| ENERMTLHCGYFKNMCMFRF | 1.9 ± 0.22 |
| SSKYTCFSDYKKCVYTLWRL | 0.292 ± 0.6 |
| LRGRSPNYEALKMLYFFLLV | 0.314 ± 1.4 |
| LTRDEGPIEDKNVEARFRVS | 0.098 ± 0.31 |
| ECYLV | -0.663 ± 0.8 |
| LSKVVFGLWFCT | 0.299 ± 0.34 |
| WWLRVVS | 0.041 ± 0.78 |
